Conditions in all cases: 20 nM; 72 h
In data set [1] the test system is MCF10A. The data set can be described thus: percent viability (nuclei count relative to siNT); higher = more viable cells. How it is done:
(§1)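 After 72 h, cells were fixed and stained with Hoechst and anti-fibrillarin, and nucleoli per nucleus were counted with CellProfiler. Values are plate-adjusted percent effect for the one-nucleolus and 5+ nucleoli phenotypes, normalised to siNT (0%) and to the positive controls siNOL11 or siKIF11 (100%), as the mean of biological triplicates. Percent viability is the nuclei count relative to siNT.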

The test system of data set [2] is MCF10A. The data set is described as follows: one-nucleolus phenotype percent effect (relative to siNT 0% and siNOL11 100%); higher = more cells with one nucleolus (ribosome biogenesis inhibition). How it is done:
as §1

Data set [3] relates to MCF10A. The data set can be described thus: 5+ nucleoli phenotype percent effect (relative to siNT 0% and siKIF11 100%); higher = more cells with five or more nucleoli. Here is the method:
as §1

Turning to UUAGGGCCCUGGCUCCAUCUCC [hsa-miR-1296], in the data set with MCF10A [1], the percent viability is 39.5%. Besides, in the data set on MCF10A [2], the “one-nucleolus phenotype percent effect” value is 8%. Moreover, in the data set on MCF10A [3], the “5+ nucleoli phenotype percent effect” value was found to be 13.2%.
The matching figures for UUAGUCCUGCCUGUAGGUUUA [hsa-miR-4540]: 39.3%, 8.27% and -37.9%.
UUAGUCUCAUGAUCAGACACA [hsa-miR-4474-5p]: the percent viability in the data set on MCF10A [1] is 29.8%. In addition, the “one-nucleolus phenotype percent effect” value in the data set with MCF10A [2] is -23.4%. Also, in the data set with MCF10A [3], the “5+ nucleoli phenotype percent effect” value was 35.6%.
For UUAGUGAAGGCUAUUUUAAUU [hsa-miR-3606-5p], the percent viability in the data set with MCF10A [1] turned out to be 109%. Moreover, the “one-nucleolus phenotype percent effect” value with MCF10A [2] is 6.89%. In the data set on MCF10A [3], the “5+ nucleoli phenotype percent effect” value was -9.93%.
Taken in the same sequence, the figures for UUAGUGCAUAGUCUUUGGUCU [hsa-miR-4671-3p] were 85.2%, -12% and 47.6%.
The matching figures for UUAUAAAGCAAUGAGACUGAUU [hsa-miR-340-5p]: 21.9%, 47.7% and -24.6%.
The matching figures for “UUAUAAUACAACCUGAUAAGUG [hsa-miR-374a-5p]”: 100%, -14.4% and 26.1%.
For the sequence UUAUCAGAAUCUCCAGGGGUAC [hsa-miR-361-5p], the percent viability with MCF10A [1] stood at 62.4%. The “one-nucleolus phenotype percent effect” value with MCF10A [2] is -9.14%. For the same sequence, the “5+ nucleoli phenotype percent effect” value in the data set with MCF10A [3] was -4.16%.
As for UUAUGGUUUGCCUGGGACUGAG [hsa-miR-584-5p], the percent viability in the data set with MCF10A [1] was found to be 77.9%. Moreover, in the data set with MCF10A [2], the “one-nucleolus phenotype percent effect” value is -25.7%. For the same sequence, the “5+ nucleoli phenotype percent effect” value with MCF10A [3] came to 35%.
In the case of UUAUUGCUUAAGAAUACGCGUAG [hsa-miR-137], in the data set with MCF10A [1], the percent viability stood at 114%. Further, the “one-nucleolus phenotype percent effect” value with MCF10A [2] is 47.7%. The “5+ nucleoli phenotype percent effect” value with MCF10A [3] is -22.6%.
Take UUAUUGUCACGUUCUGAUU [hsa-miR-5701]: in the data set on MCF10A [1], the percent viability came out at 22.2%. Moreover, the “one-nucleolus phenotype percent effect” value with MCF10A [2] was determined as 4.81%. For the same sequence, in the data set on MCF10A [3], the “5+ nucleoli phenotype percent effect” value was 3.43%.
The matching figures for UUCAACAAGGGUGUAGGAUGG [hsa-miR-7159-5p]: 105%, -19.4% and 14.1%.
Taken in the same sequence, the figures for UUCAACGGGUAUUUAUUGAGCA [hsa-miR-95] were 69.8%, -0.724% and 9.5%.
The matching figures for UUCAAGUAAUCCAGGAUAGGCU [hsa-miR-26a-5p]: 103%, -6.05% and 17.8%.
Take UUCAAGUAAUUCAGGAUAGGU [hsa-miR-26b-5p]: the percent viability in the data set with MCF10A [1] stood at 149%. The “one-nucleolus phenotype percent effect” value in the data set on MCF10A [2] was -8.67%. The “5+ nucleoli phenotype percent effect” value with MCF10A [3] turned out to be 45.6%.
The matching figures for UUCAAGUAAUUCAGGUG [hsa-miR-1297]: 121%, -17.3% and 45.2%.
As to UUCACAAGGAGGUGUCAUUUAU [hsa-miR-513b], the percent viability in the data set with MCF10A [1] stood at 62.4%. Besides, the “one-nucleolus phenotype percent effect” value with MCF10A [2] was determined as 14.2%. In addition, the “5+ nucleoli phenotype percent effect” value in the data set with MCF10A [3] was -29.7%.
The matching figures for UUCACAGGGAGGUGUCAU [hsa-miR-513a-5p]: 68%, 24.8% and -25.5%.
For the sequence UUCACAGUGGCUAAGUUCCGC [hsa-miR-27a-3p], the percent viability in the data set on MCF10A [1] is 118%. Further, in the data set on MCF10A [2], the “one-nucleolus phenotype percent effect” value is -7.64%. Besides, the “5+ nucleoli phenotype percent effect” value with MCF10A [3] was -6.22%.
With UUCACAGUGGCUAAGUUCUGC [hsa-miR-27b-3p], the percent viability in the data set on MCF10A [1] is 128%. Further, the “one-nucleolus phenotype percent effect” value in the data set with MCF10A [2] is -13.3%. Besides, the “5+ nucleoli phenotype percent effect” value in the data set on MCF10A [3] was -0.0856%.
The matching figures for “UUCACAUUGUGCUACUGUCUGC [hsa-miR-130a-5p]”: 124%, -14.6% and 19%.
Taken in the same sequence, the figures for UUCACCACCUUCUCCACCCAGC [hsa-miR-197-3p] were 28.8%, 10.8% and -10%.
Regarding “UUCACCCCUCUCACCUAAGCAG [hsa-miR-6802-3p]”, the percent viability with MCF10A [1] turned out to be 63.6%. Besides, the “one-nucleolus phenotype percent effect” value in the data set with MCF10A [2] is -11.2%. Moreover, the “5+ nucleoli phenotype percent effect” value in the data set with MCF10A [3] was 15.5%.
UUCACUGGAGUUUGUUUCAAUA [hsa-miR-653-3p]: the percent viability in the data set with MCF10A [1] stood at 57.9%. The “one-nucleolus phenotype percent effect” value with MCF10A [2] was -7.51%. For the same sequence, in the data set on MCF10A [3], the “5+ nucleoli phenotype percent effect” value is -0.303%.
Take UUCAGAUCCCAGCGGUGCCUCU [hsa-miR-5100]: the percent viability in the data set with MCF10A [1] came out at 39.2%. In addition, the “one-nucleolus phenotype percent effect” value in the data set on MCF10A [2] amounted to 14.1%. The “5+ nucleoli phenotype percent effect” value with MCF10A [3] was -27.6%.
Taken in the same sequence, the figures for UUCAGCAGGAACAGCU [hsa-miR-4291] were 45.7%, -4.14% and -7.69%.
Taken in the same sequence, the figures for “UUCAGCCAGGCUAGUGCAGUCU [hsa-miR-3157-5p]” were 20.1%, 7.66% and -4.24%.
The matching figures for “UUCAUGAACUGGGUCUAGCUUGG [hsa-miR-7154-5p]”: 60.8%, -15.2% and -0.807%.
For the sequence UUCAUUCGGCUGUCCAGAUGUA [hsa-miR-1298], the percent viability in the data set on MCF10A [1] is 130%. The “one-nucleolus phenotype percent effect” value in the data set with MCF10A [2] is -24.3%. Besides, the “5+ nucleoli phenotype percent effect” value in the data set on MCF10A [3] came to 33.4%.
As for “UUCAUUUGCCUCCCAGCCUACA [hsa-miR-664b-3p]”, the percent viability in the data set on MCF10A [1] turned out to be 28.7%. Also, in the data set with MCF10A [2], the “one-nucleolus phenotype percent effect” value is 39.1%. In the data set on MCF10A [3], the “5+ nucleoli phenotype percent effect” value was -29.2%.
Taken in the same sequence, the figures for UUCAUUUGGUAUAAACCGCGAUU [hsa-miR-579] were 29%, 45.1% and -37.2%.
Taken in the same sequence, the figures for “UUCCACUGCCACUACCUAAUUU [hsa-miR-6509-3p]” were 56.2%, -4.11% and -18.4%.
The matching figures for “UUCCAGCCCUGGUAGGCGCCGCG [hsa-miR-6720-5p]”: 17.9%, 45% and -23.2%.
In the case of “UUCCAGCCCUUCUAAUGGUAGG [hsa-miR-6512-3p]”, the percent viability with MCF10A [1] stood at 33.8%. The “one-nucleolus phenotype percent effect” value in the data set with MCF10A [2] was 39.8%. Further, in the data set on MCF10A [3], the “5+ nucleoli phenotype percent effect” value is -33.4%.
The matching figures for “UUCCAUGCCUCCUAGAAGUUCC [hsa-miR-5581-3p]”: 57.3%, -19.3% and 13.6%.
Taken in the same sequence, the figures for UUCCCAGCCAACGCACCA [hsa-miR-7977] were 63.8%, -23.2% and 20.4%.
Taken in the same sequence, the figures for “UUCCCUAUCUCACUCUCCUCAG [hsa-miR-6883-3p]” were 58.5%, -14.4% and 20.1%.
In the case of UUCCCUUUGUCAUCCUAUGCCU [hsa-miR-204-5p], the percent viability in the data set on MCF10A [1] was 100%. The “one-nucleolus phenotype percent effect” value in the data set with MCF10A [2] was -10.4%. Besides, in the data set on MCF10A [3], the “5+ nucleoli phenotype percent effect” value was 46%.
UUCCCUUUGUCAUCCUUCGCCU [hsa-miR-211-5p]: the percent viability in the data set on MCF10A [1] amounted to 75.8%. In addition, in the data set on MCF10A [2], the “one-nucleolus phenotype percent effect” value was -7.23%. Also, the “5+ nucleoli phenotype percent effect” value with MCF10A [3] is 49.7%.
Taken in the same sequence, the figures for UUCCGCCAGUCGGUGGCCGG [hsa-miR-6084] were 90.2%, -5.3% and 0.691%.
With UUCCUAUGCAUAUACUUCUUUG [hsa-miR-202-5p], the percent viability in the data set on MCF10A [1] was 72.7%. Moreover, the “one-nucleolus phenotype percent effect” value in the data set on MCF10A [2] was -12.4%. Also, the “5+ nucleoli phenotype percent effect” value in the data set with MCF10A [3] was found to be 12.8%.
The matching figures for “UUCCUGGGCUUCUCCUCUGUAG [hsa-miR-6783-3p]”: 88.9%, -1.45% and 7.93%.
Consider UUCCUUCUGUUGUCUGUGCAG [hsa-miR-6868-3p], for which, in the data set with MCF10A [1], the percent viability is 28.1%. Also, the “one-nucleolus phenotype percent effect” value with MCF10A [2] was -3.76%. Also, the “5+ nucleoli phenotype percent effect” value in the data set on MCF10A [3] is -19.2%.
Taken in the same sequence, the figures for “UUCGCCACUUCCCUCCCUGCAG [hsa-miR-6788-3p]” were 89.7%, -13.9% and 18%.
As for UUCGCGGGCGAAGGCAAAGUC [hsa-miR-3124-5p], the percent viability in the data set on MCF10A [1] turned out to be 32.5%. The “one-nucleolus phenotype percent effect” value in the data set on MCF10A [2] was 3.56%. For the same sequence, the “5+ nucleoli phenotype percent effect” value in the data set with MCF10A [3] was found to be 18.7%.
As for “UUCGGGCUGGCCUGCUGCUCCGG [hsa-miR-3944-3p]”, the percent viability in the data set on MCF10A [1] came to 30.8%. Besides, the “one-nucleolus phenotype percent effect” value in the data set on MCF10A [2] is -7.09%. The “5+ nucleoli phenotype percent effect” value in the data set on MCF10A [3] came to 17.5%.
Taken in the same sequence, the figures for “UUCGGUAUACUUUGUGAAUUGG [hsa-miR-4798-5p]” were 78.1%, 0.862% and -0.701%.
The matching figures for “UUCUAGAUGAGAGAUAUAUAUA [hsa-miR-4777-5p]”: 34.7%, 29.8% and -25.9%.

Values taken from the supplement of paper PMC10899765.
